Data reported in publication PMC10339645, “Kinetic characterization of annotated glycolytic enzymes present in cellulose-fermenting Clostridium thermocellum suggests different metabolic roles” (Biotechnology for Biofuels and Bioproducts, 2023).
Blank lines part the entries; values can stand above or below the molecule they belong to.

How the values were obtained:
PfkB [1] = molecular target: T1, PfkB (Acetivibrio thermocellus, UniProt A3DCE8); assay: coupled NADP+ reduction at […] nm, relative activity; assay type: biochemical; settings: inhibitor; GTP as phosphate donor 2.24 mM; fructose 2.24 mM; 55 °C
T1 construct: gene Cthe_0389; N-terminal His6 tag with ~4-kDa linker (pRSET-A, plasmid pAHCT0389), tag kept; codon-optimized, E. coli T7 Shuffle; ~40 kDa monomer

PfkA [2] = molecular target: T2, PfkA (Acetivibrio thermocellus, UniProt A3DEW4); assay: coupled NADH oxidation at […] nm, relative activity; assay type: biochemical; settings: inhibitor; 2 mM F6P, 2 mM ATP or GTP; NH4Cl; 55 °C
T2 construct: N-terminal His6 tag with ~4-kDa linker (pRSET-A, plasmid pAHCT1261), tag kept; codon-optimized, E. coli T7 Shuffle; ~40 kDa monomer

PfkA [3] = molecular target: T2, PfkA; assay: coupled NADH oxidation at […] nm, relative activity; assay type: biochemical; settings: inhibitor; GTP as phosphate donor; 2.5 mM MgCl2; NH4Cl; 55 °C
PfkB [4] = molecular target: T1, PfkB; assay: coupled NADP+ reduction at […] nm, relative activity; assay type: biochemical; settings: inhibitor; fructose 2.24 mM, phosphate donor 2.24 mM; 55 °C
purified protein [5] = substrate: Nc1ncnc2c1ncn2[C@@H]1O[C@H](COP(=O)(O)OP(=O)(O)OP(=O)(O)O)[C@@H](O)[C@H]1O; assay: purified protein; assay type: biochemical, Acetivibrio thermocellus
purified protein [6] = substrate: Nc1nc2c(ncn2[C@@H]2O[C@H](COP(=O)(O)OP(=O)(O)OP(=O)(O)O)[C@@H](O)[C@H]2O)c(=O)[nH]1; assay: purified protein; assay type: biochemical, Acetivibrio thermocellus
[7] = fructose 2 mM constant, 5 mM MgCl2, pH 7.5, 55 °C
[8] = F6P 2 mM constant, 5 mM MgCl2, 2 mM NH4Cl, pH 7.5, 55 °C, extrapolated beyond 2 mM ATP
[9] = F6P 2 mM constant, 5 mM MgCl2, 2 mM NH4Cl, pH 7.5, 55 °C

% relative activity at 2.24 mM (PfkB [1]): 38%
Molecule: Nc1ncnc2c1ncn2[C@@H]1O[C@H](COP(=O)(O)O)[C@@H](O)[C@H]1O [AMP]

Molecule: C=C(OP(=O)(O)O)C(=O)O [PEP]
relative activity at 2 mM (PfkA [2]): addition of PEP or PPi caused a decrease in the activity of PfkA

% relative activity at 2.24 mM (PfkB [1]): 38%
Molecule: Nc1ncnc2c1ncn2[C@@H]1O[C@H](COP(=O)(O)OP(=O)(O)O)[C@@H](O)[C@H]1O [ADP]

% relative activity at 0.05 mM (PfkA [3]): 21%
Molecule: O=P(O)(O)OP(=O)(O)O [PPi]

Molecule: OC[C@H]1OC(O)[C@H](O)[C@@H](O)[C@H]1O (stereo partly shown) [galactose]
relative activity at 2.24 mM (PfkB [4]): Galactose also caused a noticeable decrease in activity

B1: PfkB (Acetivibrio thermocellus ATCC 27405) (protein)
chain: MFDVVAVGELLIDFLPAGTNENGMPLFSSNPGGAPANVLAMLSKLGAKTAFIGKVGKDGFGQFLKATLDNAGIDTSNLLMSSSEMTTLAFVHLNEKGDRSFSFYRKHCADVSLDAGELDKDLLRTCHFLHFGAVSLTDEPSRTATLEAARIAKEAGAIISYDPNYRPALWSNEHEARKYMLKAVEYADLVKVSEEELWLLAESEDFSKGAHKLLAMGPSVVFVTCGEKGSYVFTGSCKANHCGYDVKVVDTTGAGDAFVGAMLWQLRGMSLEEISQICEQKWGELLAFSNAAGTIVATKKGAIPAMPDLDTINTFMRQFLEEK
notes: N-terminal His6 tag with ~4-kDa linker (pRSET-A, plasmid pAHCT0389), tag kept; codon-optimized, E. coli T7 Shuffle; ~40 kDa monomer
Km (purified protein [5]; [7]): 400 ± 100 µM | Vmax (purified protein [5]; [7]): 110 µmol/min/mg | Km (purified protein [6]; [7]): 200 ± 80 µM | Vmax (purified protein [6]; [7]): 124 µmol/min/mg

B2: PfkA (Acetivibrio thermocellus ATCC 27405) (protein)
chain: MSSVRTIGVLTSGGDAPGMNAAIRSVVRTGLYYGFKVLGIRKGFNGLINGDIEELTARSVGDIIHRGGTILQTARSPQFKTEEGLKKAMSMAKVFGIDALVVIGGDGSYRGARDISKLGLNVIGIPGTIDNDIGCTDYTIGFDTAMNTVQDAIDKIRDTAYSHERCSVLEVMGRHAGYIAVNVSISGGAEAVVLPEKPFDMDTDVIKPIIEGRNRGKKHYLVIVAEGGEGKAIEIAKEITEKTGIEARATILGHIQRGGSPTVYDRVMASQMGAKAVEVLMENKRNRVIVFKDNQIGDMDLEEALQVKKTISEDLIQLSKILAL
notes: N-terminal His6 tag with ~4-kDa linker (pRSET-A, plasmid pAHCT1261), tag kept; codon-optimized, E. coli T7 Shuffle; ~40 kDa monomer
Km (purified protein [5]; [8]): 2500 ± 960 µM | Vmax (purified protein [5]; [8]): 430 µmol/min/mg | Km (purified protein [6]; [9]): 200 ± 20 µM | Vmax (purified protein [6]; [9]): 282 µmol/min/mg
